Laboratory results published in patent US20240376171A1 (Hoffmann-La Roche, published 2024).

B1: human TA PD1-IL2v, MT204, 2xPQARK, N-term (antibody)
light: DIVMTQSPDSLAVSLGERATINCKASESVDTSDNSFIHWYQQKPGQSPKLLIYRSSTLESGVPDRFSGSGSGTDFTLTISSLQAEDVAVYYCQQNYDVPWTFGQGTKVEIKRTVAAPSVFIFPPSDEQLKSGTASVVCLLNNFYPREAKVQWKVDNALQSGNSQESVTEQDSKDSTYSLSSTLTLSKADYEKHKVYACEVTHQGLSSPVTKSFNRGEC
heavy: EVQLLESGGGLVQPGGSLRLSCAASGFSFSSYTMSWVRQAPGKGLEWVATISGGGRDIYYPDSVKGRFTISRDNSKNTLYLQMNSLRAEDTAVYYCVLLTGRVYFALDSWGQGTLVTVSSASTKGPSVFPLAPSSKSTSGGTAALGCLVKDYFPEPVTVSWNSGALTSGVHTFPAVLQSSGLYSLSSVVTVPSSSLGTQTYICNVNHKPSNTKVDKKVEPKSCDKTHTCPPCPAPEAAGGPSVFLFPPKPKDTLMISRTPEVTCVVVDVSHEDPEVKFNWYVDGVEVHNAKTKPREEQYNSTYRVVSVLTVLHQDWLNGKEYKCKVSNKALGAPIEKTISKAKGQPREPQVCTLPPSRDELTKNQVSLSCAVKGFYPSDIAVEWESNGQPENNYKTTPPVLDSDGSFFLVSKLTVDKSRWQQGNVFSCSVMHEALHNHYTQKSLSLSPG
chain: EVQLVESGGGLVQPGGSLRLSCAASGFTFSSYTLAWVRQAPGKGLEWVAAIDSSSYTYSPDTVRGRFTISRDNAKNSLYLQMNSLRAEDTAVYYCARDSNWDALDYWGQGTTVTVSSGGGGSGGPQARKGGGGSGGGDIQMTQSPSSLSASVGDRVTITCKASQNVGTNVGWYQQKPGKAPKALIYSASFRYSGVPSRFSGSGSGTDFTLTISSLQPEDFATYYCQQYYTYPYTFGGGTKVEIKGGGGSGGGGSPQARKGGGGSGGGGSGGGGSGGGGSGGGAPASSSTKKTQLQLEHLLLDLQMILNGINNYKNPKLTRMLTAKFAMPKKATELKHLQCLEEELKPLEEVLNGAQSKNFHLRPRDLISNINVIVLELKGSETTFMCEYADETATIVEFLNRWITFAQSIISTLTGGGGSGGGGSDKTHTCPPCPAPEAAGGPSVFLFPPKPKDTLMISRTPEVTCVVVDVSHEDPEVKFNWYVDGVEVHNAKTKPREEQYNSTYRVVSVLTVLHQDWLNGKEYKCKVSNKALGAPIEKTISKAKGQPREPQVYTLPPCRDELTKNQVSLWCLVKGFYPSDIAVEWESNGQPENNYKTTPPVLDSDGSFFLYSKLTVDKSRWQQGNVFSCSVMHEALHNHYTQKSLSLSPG
notes: One-armed human PD1-targeted human IgG PG LALA (knobs-into-holes); MT204 scFv-masked IL2v is fused N-terminally to the hinge of the Fc knob chain, with two PQARK sites; also called P1AG9597; P1AG9597-007
B2: human PD1-IL2v, unmasked, N-term (antibody, human IgG1, kappa, L234A L235A)
light: B1 light
heavy: EVQLLESGGGLVQPGGSLRLSCAASGFSFSSYTMSWVRQAPGKGLEWVATISGGGRDIYYPDSVKGRFTISRDNSKNTLYLQMNSLRAEDTAVYYCVLLTGRVYFALDSWGQGTLVTVSSASTKGPSVFPLAPSSKSTSGGTAALGCLVKDYFPEPVTVSWNSGALTSGVHTFPAVLQSSGLYSLSSVVTVPSSSLGTQTYICNVNHKPSNTKVDKKVEPKSCDKTHTCPPCPAPEAAGGPSVFLFPPKPKDTLMISRTPEVTCVVVDVSHEDPEVKFNWYVDGVEVHNAKTKPREEQYNSTYRVVSVLTVLHQDWLNGKEYKCKVSNKALGAPIEKTISKAKGQPREPQVCTLPPSRDELTKNQVSLSCAVKGFYPSDIAVEWESNGQPENNYKTTPPVLDSDGSFFLVSKLTVDKSRWQQGNVFSCSVMHEALHNHYTQKSLSLSPGK
chain: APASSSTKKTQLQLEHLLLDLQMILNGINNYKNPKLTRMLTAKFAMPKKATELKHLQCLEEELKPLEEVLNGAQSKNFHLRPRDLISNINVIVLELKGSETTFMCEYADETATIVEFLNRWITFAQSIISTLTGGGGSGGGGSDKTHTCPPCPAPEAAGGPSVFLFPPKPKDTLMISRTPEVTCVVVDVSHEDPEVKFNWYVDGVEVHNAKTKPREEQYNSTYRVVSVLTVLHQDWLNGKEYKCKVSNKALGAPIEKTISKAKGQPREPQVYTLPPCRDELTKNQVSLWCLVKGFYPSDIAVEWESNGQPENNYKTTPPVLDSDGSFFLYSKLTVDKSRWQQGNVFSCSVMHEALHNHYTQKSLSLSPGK
notes: One-armed human PD1-targeted human IgG PG LALA with IL2v fused N-terminally to the hinge of the Fc knob chain (non-masked control); also called P1AG3071; P1AG3071-004
B3: murine TA PD1-IL2v, MT204, 2xPQARK, in line (antibody, mouse IgG1, kappa)
light: KIVLTQSPASLPVSLGQRATISCRASESVDTSDNSFIHWYQQRPGQSPKLLIYRSSTLESGVPARFSGSGSRTDFTLTIDPVEADDVATYYCQQNYDVPWTFGGGTKLEIKRADAAPTVSIFPPSSEQLTSGGASVVCFLNNFYPKDINVKWKIDGSERQNGVLNSWTDQDSKDSTYSMSSTLTLTKDEYERHNSYTCEATHKTSTSPIVKSFNRNEC
heavy 1: EVILVESGGGLVKPGGSLKLSCAASGFSFSSYTMSWVRQTPEKRLDWVATISGGGRDIYYPDSVKGRFTISRDNAKNTLYLEMSSLMSEDTALYYCVLLTGRVYFALDSWGQGTSVTVSSAKTTPPSVYPLAPGSAAQTNSMVTLGCLVKGYFPEPVTVTWNSGSLSSGVHTFPAVLQSDLYTLSSSVTVPSSTWPSQTVTCNVAHPASSTKVDKKIVPRDCGCKPCICTVPEVSSVFIFPPKPKDVLTITLTPKVTCVVVAISKDDPEVQFSWFVDDVEVHTAQTKPREEQINSTFRSVSELPIMHQDWLNGKEFKCRVNSAAFGAPIEKTISKTKGRPKAPQVYTIPPPKKQMAKDKVSLTCMITNFFPEDITVEWQWNGQPAENYKNTQPIMKTDGSYFVYSKLNVQKSNWEAGNTFTCSVLHEGLHNHHTEKSLSHSPG
heavy 2: EVILVESGGGLVKPGGSLKLSCAASGFSFSSYTMSWVRQTPEKRLDWVATISGGGRDIYYPDSVKGRFTISRDNAKNTLYLEMSSLMSEDTALYYCVLLTGRVYFALDSWGQGTSVTVSSAKTTPPSVYPLAPGSAAQTNSMVTLGCLVKGYFPEPVTVTWNSGSLSSGVHTFPAVLQSDLYTLSSSVTVPSSTWPSQTVTCNVAHPASSTKVDKKIVPRDCGCKPCICTVPEVSSVFIFPPKPKDVLTITLTPKVTCVVVAISKDDPEVQFSWFVDDVEVHTAQTKPREEQINSTFRSVSELPIMHQDWLNGKEFKCRVNSAAFGAPIEKTISKTKGRPKAPQVYTIPPPKEQMAKDKVSLTCMITNFFPEDITVEWQWNGQPAENYDNTQPIMDTDGSYFVYSDLNVQKSNWEAGNTFTCSVLHEGLHNHHTEKSLSHSPGGGGGSGGGGSGGGGGAPASSSTKKTQLQLEHLLLDLQMILNGINNYKNPKLTRMLTAKFAMPKKATELKHLQCLEEELKPLEEVLNGAQSKNFHLRPRDLISNINVIVLELKGSETTFMCEYADETATIVEFLNRWITFAQSIISTLTGGGGSGGGGSPQARKGGGGSGGGGSGGGGSGGGGSGGGEVQLVESGGGLVQPGGSLRLSCAASGFTFSSYTLAWVRQAPGKGLEWVAAIDSSSYTYSPDTVRGRFTISRDNAKNSLYLQMNSLRAEDTAVYYCARDSNWDALDYWGQGTTVTVSSGGGGSGGPQARKGGGGSGGGDIQMTQSPSSLSASVGDRVTITCKASQNVGTNVGWYQQKPGKAPKALIYSASFRYSGVPSRFSGSGSGTDFTLTISSLQPEDFATYYCQQYYTYPYTFGGGTKVEIK
notes: Murine surrogate: bivalent human PD1-targeted murine IgG DA PG with masked human IL2v in-line on the C-terminus of the Fc DD- chain, two PQARK sites; also called P1AG9983; P1AG9983-001
B4: murine PD1-IL2v, unmasked, in line (antibody, mouse IgG1, kappa)
light: B3 light
heavy 1: B3 heavy 1
heavy 2: EVILVESGGGLVKPGGSLKLSCAASGFSFSSYTMSWVRQTPEKRLDWVATISGGGRDIYYPDSVKGRFTISRDNAKNTLYLEMSSLMSEDTALYYCVLLTGRVYFALDSWGQGTSVTVSSAKTTPPSVYPLAPGSAAQTNSMVTLGCLVKGYFPEPVTVTWNSGSLSSGVHTFPAVLQSDLYTLSSSVTVPSSTWPSQTVTCNVAHPASSTKVDKKIVPRDCGCKPCICTVPEVSSVFIFPPKPKDVLTITLTPKVTCVVVAISKDDPEVQFSWFVDDVEVHTAQTKPREEQINSTFRSVSELPIMHQDWLNGKEFKCRVNSAAFGAPIEKTISKTKGRPKAPQVYTIPPPKEQMAKDKVSLTCMITNFFPEDITVEWQWNGQPAENYDNTQPIMDTDGSYFVYSDLNVQKSNWEAGNTFTCSVLHEGLHNHHTEKSLSHSPGGGGGSGGGGSGGGGGAPASSSTKKTQLQLEHLLLDLQMILNGINNYKNPKLTRMLTAKFAMPKKATELKHLQCLEEELKPLEEVLNGAQSKNFHLRPRDLISNINVIVLELKGSETTFMCEYADETATIVEFLNRWITFAQSIISTLT
notes: Murine surrogate: bivalent human PD1-targeted murine IgG DA PG with IL2v fused to the C-terminus of the Fc DD- chain (non-masked control); also called P1AG7552; P1AG7552-006

Legend:
[1] = molecular target: T1, PD1 on activated human CD4 and CD8 T cells (human, UniProt Q15116 25-288); assay: flow cytometry on CD3/CD28-activated T cells (CD4 and CD8) within human PBMCs; construct digested with matriptase; PE anti-human Fc secondary
T1 construct: whole, on cells; Endogenous PD1 on CD3/CD28-stimulated T cells; also called human PD1; PD1 receptor
T1 sequence (Q15116 25-288): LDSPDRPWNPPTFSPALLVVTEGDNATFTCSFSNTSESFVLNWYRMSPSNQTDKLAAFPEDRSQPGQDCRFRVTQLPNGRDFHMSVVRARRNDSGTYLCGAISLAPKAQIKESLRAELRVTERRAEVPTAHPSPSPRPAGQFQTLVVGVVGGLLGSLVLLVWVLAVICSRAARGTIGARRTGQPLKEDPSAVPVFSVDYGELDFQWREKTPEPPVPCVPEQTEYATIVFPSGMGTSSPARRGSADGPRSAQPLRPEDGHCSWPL
Protocol: (§1) PBMCs were purchased from Biomex from a healthy donor (Lot 5000729PB). The PBMCs were stimulated for three days with CD3 and CD28 to induce upregulation of PD1 on T cells. Therefore, PBMCs were seeded in medium (RPMI1640, 10% FCS, 2 mM Glutamine) into cell culture flasks that were coated for 1 hour at 37° C. with 1 μg/ml CD3 (clone OKT3, 302914, BioLegend). CD28 was added in solution to the PBMCs at a concentration of 1 μg/ml (clone CD28.2, 302914, BioLegend). After three days, PBMCs were harvested and transferred into a 96 well round bottom plate (200′000 cells per well). The cells were washed with FACS buffer (PBS, 2% FBS, 5 mM EDTA, 0.025% NaN3) and stained with 30 μl of corresponding TA PD1-IL2v constructs in FACS buffer for 30 min at 4° C. Prior to the staining, 20 μg of the TA PD1-IL2v constructs were digested with 4 μl Matriptase (Enzo ˜2.5 U/μl, ALX-201-246-U25, Lot 12152015, or without Matriptase for the unmasked controls) for 2 hours at 37° C. in 40 μl Matriptase buffer (50 mM Tris, 50 mM NaCl, 0.01% Tween 20, pH 9.0). After the staining, the cells were washed twice with FACS buffer to remove unbound molecules. […] Finally the cells resuspended in 150 μl FACS buffer and measured using a BD Fortessa gating on CD3+CD4+ cells (CD4 T cells) and CD3+CD8+ cells (CD8 T cells).

[2] = molecular target: T1, PD1 on activated human CD4 and CD8 T …; assay: flow cytometry, CD3/CD28-activated human PBMCs gated on CD3+CD4+ T cells, PE anti-human Fc secondary antibody; TA constructs pre-incubated with Matriptase, unmasked controls not
Protocol: (§2) Three formats of TA PD1-IL2v molecules and respective controls were assessed for their capacity to bind to activated PD1 positive CD8 T cells and CD4 T cells within PBMCs in comparison to the respective unmasked molecules.
(§3) PBMCs were purchased from Biomex from a healthy donor (Lot 5000729PB). The PBMCs were stimulated for three days with CD3 and CD28 to induce upregulation of PD1 on T cells. Therefore, PBMCs were seeded in medium (RPMI1640, 10% FCS, 2 mM Glutamine) into cell culture flasks that were coated for 1 hour at 37° C. with 1 μg/ml CD3 (clone OKT3, 302914, BioLegend). CD28 was added in solution to the PBMCs at a concentration of 1 μg/ml (clone CD28.2, 302914, BioLegend). After three days, PBMCs were harvested and transferred into a 96 well round bottom plate (200′000 cells per well). The cells were washed with FACS buffer (PBS, 2% FBS, 5 mM EDTA, 0.025% NaN3) and stained with 30 μl of corresponding TA PD1-IL2v constructs in FACS buffer for 30 min at 4° C. Prior to the staining, 20 μg of the TA PD1-IL2v constructs were digested with 4 μl Matriptase (Enzo ˜2.5 U/μl, ALX-201-246-U25, Lot 12152015, or without Matriptase for the unmasked controls) for 2 hours at 37° C. in 40 μl Matriptase buffer (50 mM Tris, 50 mM NaCl, 0.01% Tween 20, pH 9.0). After the staining, the cells were washed twice with FACS buffer to remove unbound molecules. Then 30 μl of the diluted PE anti-human Fc specific secondary antibody (1:50 dilution, 109-116-170, Jackson ImmunoResearch) was added to the cells. After 30 min incubation at 4° C. the cells were washed twice with FACS buffer. To detect T cells, PBMCs were stained with 30 μl of a mixture of CD3 PE/Cyanine7 (clone UCHT1, 300420, BioLegend), CD4 FITC (clone RPA-T4, 300528, BioLegend) and CD8 APC/Cyanine7 (clone HIT8a, 300926, BioLegend) for 30 min at 4° C. The unbound antibodies were removed by washing twice with FACS buffer. Finally the cells resuspended in 150 μl FACS buffer and measured using a BD Fortessa gating on CD3+CD4+ cells (CD4 T cells) and CD3+CD8+ cells (CD8 T cells).

[3] = molecular target: T1, PD1 on activated human CD4 and CD8 T …; assay: flow cytometry, CD3/CD28-activated human PBMCs gated on CD3+CD8+ T cells, PE anti-human Fc secondary antibody; TA constructs pre-incubated with Matriptase, unmasked controls not
Protocol: as §2, §3

[4] = molecular target: T1, PD1 on activated human CD4 and CD8 T …; assay: flow cytometry on CD3/CD28-activated T cells (CD4 and CD8) within human PBMCs; no matriptase; PE anti-human Fc secondary
Protocol: as §1

[5] = molecular target: T1, PD1 on activated human CD4 and CD8 T …; assay: flow cytometry, CD3/CD28-activated human PBMCs gated on CD3+CD4+ T cells, FITC anti-mouse Fc secondary antibody; no Matriptase digestion described
Protocol: (§4) PBMCs were bought from Biomex from a healthy donor (Lot 5000899PB). The PBMCs were stimulated for 3 days with CD3 and CD28 to induce upregulation of PD1 on T cells. Therefore, PBMCs were seeded in medium (RPMI1640, 10% FCS, 2 mM Glutamine) into cell culture flasks that were coated for 1 h at 37° C. with 1 μg/ml CD3 (clone OKT3, 302914, BioLegend). CD28 was added in solution to the PBMCs at a concentration of 1 μg/ml (clone CD28.2, 302914, BioLegend). After three days, PBMCs were harvested and transferred into a 96 well round bottom plate (200′000 cells per well). The cells were washed with FACS buffer (PBS, 2% FBS, 5 mM EDTA, 0.025% NaN3) and stained with 30 μl of corresponding TA PD1-IL2v constructs in FACS buffer for 30 min at 4° C. The cells were washed twice with FACS buffer to remove unbound molecules. Then 30 μl of the diluted FITC anti-mouse Fc specific secondary antibody (1:50 dilution, 115-096-071, Jackson ImmunoResearch) or for the human constructs the diluted FITC anti-human Fc specific secondary antibody (1:50 dilution, 115-096-098, Jackson ImmunoResearch) was added to the cells. After 30 min incubation at 4° C. the cells were washed twice with FACS buffer. […] Finally the cells were resuspended in 150 μl FACs buffer and measured using a BD Fortessa gating on CD3+CD4+ cells (CD4 T cells) and CD3+CD8+ cells (CD8 T cells).

[6] = molecular target: T1, PD1 on activated human CD4 and CD8 T …; assay: flow cytometry, CD3/CD28-activated human PBMCs gated on CD3+CD8+ T cells, FITC anti-mouse Fc secondary antibody; no Matriptase digestion described
Protocol: as §4

Binder | fold binding capacity versus the "in line" and knob/hole formats [1] [fold] | EC50 (read off the curve) [2] [nM] | EC50 (read off the curve) [3] [nM] | fold binding capacity versus the "in line" and knob/hole formats [4] [fold] | EC50 (read off the curve) [5] [nM] | EC50 (read off the curve) [6] [nM]
B1 | ~2 | ~2 | ~3 | – | – | –
B2 | – | ~1 | ~2 | ~2 | – | –
B3 | – | – | – | – | ~2 | ~2
B4 | – | – | – | – | ~2 | ~2
